The results in this text go back to patent US20240132624A1 (Ablynx, published 2024).

Residue numbers refer to the chain shown, from its start.

The chains are these.
B1: T0263018B11 A33G (VHH, name in Kabat numbering)
VHH: EVQLVESGGGVVQPGGSLRLSCAASGFTFSSYGMYWVRQAPGKGLEWVSAISSGGGSTDYADSVKGRFTISRDNSKNTLYLQMNSLRPEDTALYYCAADTLYTSLTWYSYWGQGTLVTVSS
notes: FLAG3-His6 tagged
B2: T0263018B11 F27I (VHH, name in Kabat numbering)
VHH: B1 VHH with F27I, G33A
notes: FLAG3-His6 tagged
B3: T0263018B11 Y32M (VHH, name in Kabat numbering)
VHH: B1 VHH with Y32M, G33A
notes: FLAG3-His6 tagged
B4: T0263018B11 T57Y (VHH, name in Kabat numbering)
VHH: B1 VHH with G33A, T58Y
notes: FLAG3-His6 tagged
B5: T0263018B11 F29H (VHH, name in Kabat numbering)
VHH: B1 VHH with F29H, G33A
notes: FLAG3-His6 tagged
B6: T0263018B11 F29S (VHH, name in Kabat numbering)
VHH: B1 VHH with F29S, G33A
notes: FLAG3-His6 tagged
B7: T0263018B11 F27Y (VHH, name in Kabat numbering)
VHH: B1 VHH with F27Y, G33A
notes: FLAG3-His6 tagged
B8: T0263018B11 A93V (VHH, name in Kabat numbering)
VHH: B1 VHH with G33A, A97V
notes: FLAG3-His6 tagged
B9: T0263018B11 A33S (VHH, name in Kabat numbering)
VHH: B1 VHH with G33S
notes: FLAG3-His6 tagged
B10: T0263018B11 S52aD (VHH, name in Kabat numbering)
VHH: B1 VHH with G33A, S53D
notes: FLAG3-His6 tagged
B11: T0263018B11 A94S (VHH, name in Kabat numbering)
VHH: B1 VHH with G33A, A98S
notes: FLAG3-His6 tagged
B12: T0263018B11 D58V (VHH, name in Kabat numbering)
VHH: B1 VHH with G33A, D59V
notes: FLAG3-His6 tagged
B13: T0263018B11 G26D (VHH, name in Kabat numbering)
VHH: B1 VHH with G26D, G33A
notes: FLAG3-His6 tagged
B14: T0263018B11 F29D (VHH, name in Kabat numbering)
VHH: B1 VHH with F29D, G33A
notes: FLAG3-His6 tagged
B15: T0263018B11 A33V (VHH, name in Kabat numbering)
VHH: B1 VHH with G33V
notes: FLAG3-His6 tagged
B16: T0263018B11 Y32N (VHH, name in Kabat numbering)
VHH: B1 VHH with Y32N, G33A
notes: FLAG3-His6 tagged
B17: T0263018B11 A33P (VHH, name in Kabat numbering)
VHH: B1 VHH with G33P
notes: FLAG3-His6 tagged
B18: T0263018B11 D58E (VHH, name in Kabat numbering)
VHH: B1 VHH with G33A, D59E
notes: FLAG3-His6 tagged
B19: T0263018B11 F29V (VHH, name in Kabat numbering)
VHH: B1 VHH with F29V, G33A
notes: FLAG3-His6 tagged
B20: T0263018B11 F27L (VHH, name in Kabat numbering)
VHH: B1 VHH with F27L, G33A
notes: FLAG3-His6 tagged
B21: T0263018B11 G26L (VHH, name in Kabat numbering)
VHH: B1 VHH with G26L, G33A
notes: FLAG3-His6 tagged
B22: T0263018B11 A33T (VHH, name in Kabat numbering)
VHH: B1 VHH with G33T
notes: FLAG3-His6 tagged
B23: T0263018B11 A33Q (VHH, name in Kabat numbering)
VHH: B1 VHH with G33Q
notes: FLAG3-His6 tagged
B24: T0263018B11 F29G (VHH, name in Kabat numbering)
VHH: B1 VHH with F29G, G33A
notes: FLAG3-His6 tagged
B25: T0263018B11 D58Y (VHH, name in Kabat numbering)
VHH: B1 VHH with G33A, D59Y
notes: FLAG3-His6 tagged
B26: T0263018B11 D58H (VHH, name in Kabat numbering)
VHH: B1 VHH with G33A, D59H
notes: FLAG3-His6 tagged
B27: T0263018B11 T28A (VHH, name in Kabat numbering)
VHH: B1 VHH with T28A, G33A
notes: FLAG3-His6 tagged
B28: T0263018B11 S56M (VHH, name in Kabat numbering)
VHH: B1 VHH with G33A, S57M
notes: FLAG3-His6 tagged

T2 sequence (chain, as listed by the source limits assumed, chain 1 of 2): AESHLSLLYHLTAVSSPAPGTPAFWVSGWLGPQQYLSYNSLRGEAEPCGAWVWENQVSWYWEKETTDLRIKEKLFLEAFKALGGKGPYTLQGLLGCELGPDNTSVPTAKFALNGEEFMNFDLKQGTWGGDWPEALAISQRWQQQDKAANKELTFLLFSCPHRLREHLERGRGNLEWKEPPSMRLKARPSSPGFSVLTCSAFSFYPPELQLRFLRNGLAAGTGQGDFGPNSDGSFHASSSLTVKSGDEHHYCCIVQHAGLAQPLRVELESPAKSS
T2 sequence (P61769 21-119 limits assumed, chain 2 of 2): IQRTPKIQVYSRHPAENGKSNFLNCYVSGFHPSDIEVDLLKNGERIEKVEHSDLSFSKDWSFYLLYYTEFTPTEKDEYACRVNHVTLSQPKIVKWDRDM

The first experiment deals with T1, cyno FcRn/b2M (cyno, UniProt Q8SPV9 24-297; Q8SPW0 21-119, biotinylated).
T1 construct: bought recombinant biotinylated protein (Immunitrack ITF05 or ACRO FCM-C82W5); also called cFcRn; cFcRn/cb2M
T1 sequence (Q8SPV9 24-297 limits assumed, chain 1 of 2): as the sequence (chain, as listed by the source limits assumed, chain 1 of 2) above, with N39D, E44Q, G99S, S189G, S190N, L217M, S269T counted along it
T1 sequence (Q8SPW0 21-119 limits assumed, chain 2 of 2): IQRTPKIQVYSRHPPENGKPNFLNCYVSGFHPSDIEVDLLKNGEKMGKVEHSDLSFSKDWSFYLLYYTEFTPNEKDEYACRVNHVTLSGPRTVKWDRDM
Description: SPR pH 6.0.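 Further: surface plasmon resonance kinetics at 25 °C, diluted periplasmic extracts injected over immobilized ligand surfaces, 120 s association then 600–3600 s dissociation, running buffer containing 150 mM NaCl.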
Description: (§1) All kinetic measurements have been performed on ProteOn XPR36 (BioRad Laboratories, Inc.), MASS-2 (Sierra sensors, Gmbh) or SPR-32 (Bruker Corporation). […] The phytip purified periplasmic extracts were diluted 1:10 in running buffer (CPA+150 mM NaCl+0.005% Tw20 at pH 5.5, pH 6.0 or pH 7.4) and injected over the ligand surfaces (association: 120 s at 45 μL/min; dissociation: 600s-3600 s at 45 μL/min). Experiments were carried out at 25° C.
In turn, B1 gave a koff of 0.0011 s⁻¹.
Molecule B2 yielded a koff of 0.00036 s⁻¹.
Still for that read-out and setting: with B3 the figure was 0.0025 s⁻¹.
Molecule B4 returned an off-rate constant (koff) of 0.00084 s⁻¹.
B5 registered a koff of 0.0031 s⁻¹.
Regarding B6, the koff stood at 0.0013 s⁻¹.
Same read-out and setting: the same measure for B7: 0.00042 s⁻¹.
The same measure, in the same setting: the same measure for B8: 0.0021 s⁻¹; for B9: 0.0013 s⁻¹.
Still for that read-out and setting: with B10 the figure was 0.00089 s⁻¹; with B11, 0.0011 s⁻¹; with B12, 0.0025 s⁻¹.
Consider B13, for which the koff is 0.00095 s⁻¹.
Still for that read-out and setting: with B14 the figure was 0.0028 s⁻¹.
On the same count and under the same terms, the same measure for B15: 0.00024 s⁻¹; for B16: 0.0018 s⁻¹.
Still for that read-out and setting: the same measure for B17: 0.00099 s⁻¹; for B18: 0.0012 s⁻¹.
With B19, the koff came out at 0.0016 s⁻¹.
In the case of B20, the koff turned out to be 0.001 s⁻¹.
On the same count and under the same terms, the same measure for B21: 0.00087 s⁻¹; for B22: 0.00011 s⁻¹.
On the same count and under the same terms, the same measure for B23: 0.0027 s⁻¹.
Turning to B24, the koff is 0.0025 s⁻¹.
B25 yielded a koff of 0.002 s⁻¹.
The same measure, in the same setting: the same measure for B26: 0.002 s⁻¹.
Same read-out and setting: with B27 the figure was 0.00052 s⁻¹.

Another experiment concerns the target T2, human FcRn/b2M (human, UniProt P61769 21-119, biotinylated).
T2 construct: bought recombinant biotinylated protein (ACRO FCM-H82W4 or Immunitrack ITF01); also called hFcRn; hFcRn/hb2M
The experiment is described as follows: SPR pH 6.0.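 Further: surface plasmon resonance kinetics at 25 °C, diluted periplasmic extracts injected over immobilized ligand surfaces, 120 s association then 600–3600 s dissociation, running buffer containing 150 mM NaCl.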
Description: as §1
B1 yielded a koff of 0.0013 s⁻¹.
Still for that read-out and setting: the same measure for B3: 0.006 s⁻¹; for B5: 0.0039 s⁻¹.
Same read-out and setting: the same measure for B6: 0.0016 s⁻¹; for B7: 0.0012 s⁻¹; for B8: 0.003 s⁻¹.
For the molecule B9, the koff amounted to 0.0015 s⁻¹.
The same measure, in the same setting: with B11 the figure was 0.0013 s⁻¹; with B12, 0.015 s⁻¹; with B13, 0.0012 s⁻¹.
The molecule B14 displayed a koff of 0.0036 s⁻¹.
Still for that read-out and setting: with B15 the figure was 0.00022 s⁻¹; with B16, 0.0025 s⁻¹.
Still for that read-out and setting: with B18 the figure was 0.0024 s⁻¹; with B19, 0.0021 s⁻¹.
On to B20, for which the koff came to 0.0013 s⁻¹.
Same read-out and setting: with B22 the figure was 0.00011 s⁻¹.
Same read-out and setting: with B23 the figure was 0.0018 s⁻¹.
For B24, the koff worked out at 0.0033 s⁻¹.
Still for that read-out and setting: the same measure for B25: 0.01 s⁻¹; for B26: 0.012 s⁻¹.

Another experiment has as its target T1, cyno FcRn/b2M. Description: SPR pH 7.4.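 Further: surface plasmon resonance kinetics, periplasmic extracts diluted 1:10 flowed over immobilized target at 25 °C, 120 s association then 600–3600 s dissociation, buffer with 150 mM NaCl.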
Description: as §1
B1 yielded a koff of 0.04 s⁻¹.
For B2, the koff was 0.031 s⁻¹.
For the molecule B3, the koff came to 0.18 s⁻¹.
Still for that read-out and setting: the same measure for B4: 0.035 s⁻¹; for B5: 0.13 s⁻¹.
As to B6, the koff was 0.059 s⁻¹.
Same read-out and setting: with B7 the figure was 0.039 s⁻¹; with B8, 0.14 s⁻¹; with B9, 0.065 s⁻¹.
Still for that read-out and setting: the same measure for B10: 0.051 s⁻¹; for B11: 0.047 s⁻¹.
On the same count and under the same terms, the same measure for B12: 0.027 s⁻¹; for B13: 0.058 s⁻¹.
With B14, the koff is 0.15 s⁻¹.
For B15, the koff came out at 0.013 s⁻¹.
The same measure, in the same setting: with B16 the figure was 0.083 s⁻¹; with B17, 0.045 s⁻¹.
On to B18, for which the koff was 0.038 s⁻¹.
Consider B19, for which the koff stood at 0.086 s⁻¹.
For the molecule B20, the koff came out at 0.048 s⁻¹.
Still for that read-out and setting: with B21 the figure was 0.054 s⁻¹; with B22, 0.0058 s⁻¹; with B23, 0.13 s⁻¹.
B24 had a koff of 0.14 s⁻¹.
Still for that read-out and setting: the same measure for B25: 0.025 s⁻¹; for B26: 0.022 s⁻¹.
Same read-out and setting: with B27 the figure was 0.033 s⁻¹.

Another experiment addresses T2, human FcRn/b2M. Description: SPR pH 7.4.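 Further: surface plasmon resonance kinetics, periplasmic extracts diluted 1:10 flowed over immobilized target at 25 °C, 120 s association then 600–3600 s dissociation, buffer with 150 mM NaCl.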
Description: as §1
The molecule B1 had a koff of 0.034 s⁻¹.
With B2, the koff amounted to 0.045 s⁻¹.
On the same count and under the same terms, with B4 the figure was 0.033 s⁻¹; with B5, 0.14 s⁻¹; with B6, 0.066 s⁻¹.
On the same count and under the same terms, with B7 the figure was 0.054 s⁻¹; with B8, 0.15 s⁻¹; with B9, 0.059 s⁻¹.
Still for that read-out and setting: with B10 the figure was 0.044 s⁻¹; with B11, 0.046 s⁻¹; with B12, 0.14 s⁻¹.
Consider B13, for which the koff was 0.063 s⁻¹.
Still for that read-out and setting: with B14 the figure was 0.14 s⁻¹.
The same measure, in the same setting: with B15 the figure was 0.0082 s⁻¹; with B17, 0.041 s⁻¹; with B18, 0.08 s⁻¹.
Same read-out and setting: with B19 the figure was 0.089 s⁻¹; with B20, 0.05 s⁻¹; with B21, 0.041 s⁻¹.
B22 gave an off-rate constant (koff) of 0.0038 s⁻¹.
The molecule B23 yielded an off-rate constant (koff) of 0.065 s⁻¹.
B24 displayed a koff of 0.15 s⁻¹.
Still for that read-out and setting: the same measure for B25: 0.089 s⁻¹; for B26: 0.079 s⁻¹.
The same measure, in the same setting: the same measure for B27: 0.046 s⁻¹.

The target in a further experiment is T1, cyno FcRn/b2M. The experiment is described as follows: SPR off-rate; pH 7.4 vs pH 6.0.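 Further: surface plasmon resonance with diluted periplasmic extracts flowed over ligand surfaces, 120 s association and 600–3600 s dissociation at 25 °C, running buffer containing 150 mM NaCl.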
Description: as §1
With B1, the “kd ratio pH 7.4/6.0” value turned out to be 36.
The same measure, in the same setting: with B5 the figure was 42.
Same read-out and setting: with B6 the figure was 45; with B7, 93; with B8, 67.
The same measure, in the same setting: the same measure for B9: 50; for B11: 43.
With B12, the “kd ratio pH 7.4/6.0” value was 11.
On the same count and under the same terms, the same measure for B13: 61.
With B14, the “kd ratio pH 7.4/6.0” value came out at 54.
On the same count and under the same terms, the same measure for B15: 53; for B18: 32; for B19: 54.
On the same count and under the same terms, the same measure for B20: 48; for B22: 54.
The same measure, in the same setting: the same measure for B23: 48; for B24: 56.
Consider B25, for which the “kd ratio pH 7.4/6.0” value was 12.
Same read-out and setting: the same measure for B26: 11.

The target in a further experiment is T2, human FcRn/b2M. The experiment is described as follows: SPR off-rate; pH 7.4 vs pH 6.0.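 Further: surface plasmon resonance with diluted periplasmic extracts flowed over ligand surfaces, 120 s association and 600–3600 s dissociation at 25 °C, running buffer containing 150 mM NaCl.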
Description: as §1
Regarding B1, the “kd ratio pH 7.4/6.0” value worked out at 26.
B5: the “kd ratio pH 7.4/6.0” value is 36.
Still for that read-out and setting: with B6 the figure was 41.
On the same count and under the same terms, the same measure for B7: 45; for B8: 50.
The same measure, in the same setting: with B9 the figure was 39; with B28, 31; with B11, 35.
In the case of B12, the “kd ratio pH 7.4/6.0” value stood at 9.
Still for that read-out and setting: the same measure for B13: 53.
Still for that read-out and setting: with B14 the figure was 39; with B15, 37.
On to B18, for which the “kd ratio pH 7.4/6.0” value was determined as 33.
Still for that read-out and setting: with B19 the figure was 42; with B20, 38; with B22, 36.
Still for that read-out and setting: with B23 the figure was 36; with B24, 45.
The same measure, in the same setting: the same measure for B25: 9; for B26: 7.

Broadly, the koff is a measure of how fast the partners let go of each other. A low value points to a long-lived complex.
